Patent US20250332297A1, “DLL3-SPECIFIC BINDING CONSTRUCTS AND THEIR USE IN RADIOTHERAPY” (MOLECULAR PARTNERS AG, priority 2024, published 2025)

What was measured:
[1] = molecular target: T1, human DLL3 expressed on HEK293T-huDLL3 cells (Homo sapiens, UniProt Q9NYJ7); assay: Cell binding titration on HEK293T-hDLL3 cells; type: cell-based; details: absence of human serum albumin, read-out: Cell binding EC50, w/o HSA
T1 construct: expressed in transfected cells; host or cells: HEK293T-hDLL3
T1 sequence (Q9NYJ7 27-618): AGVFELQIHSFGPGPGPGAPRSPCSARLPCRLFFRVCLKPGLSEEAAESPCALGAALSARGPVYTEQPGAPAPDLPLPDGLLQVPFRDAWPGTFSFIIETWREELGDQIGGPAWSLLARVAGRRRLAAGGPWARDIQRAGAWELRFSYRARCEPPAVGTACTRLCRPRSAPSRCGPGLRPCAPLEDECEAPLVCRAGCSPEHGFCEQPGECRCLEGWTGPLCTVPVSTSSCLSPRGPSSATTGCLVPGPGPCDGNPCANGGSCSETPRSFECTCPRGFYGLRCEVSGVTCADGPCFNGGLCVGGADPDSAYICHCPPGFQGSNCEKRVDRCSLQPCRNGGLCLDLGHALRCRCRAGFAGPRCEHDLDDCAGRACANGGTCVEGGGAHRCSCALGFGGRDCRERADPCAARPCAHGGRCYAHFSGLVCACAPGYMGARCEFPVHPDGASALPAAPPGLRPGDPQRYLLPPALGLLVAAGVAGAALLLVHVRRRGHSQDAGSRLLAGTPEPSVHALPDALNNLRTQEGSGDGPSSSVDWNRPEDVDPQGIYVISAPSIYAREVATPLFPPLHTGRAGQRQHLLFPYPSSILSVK
Experimental: Cell binding titration assays were performed for selected His-tagged single domain (1 D) and two domain (2D) designed ankyrin repeat proteins to determine binding to human DLL3 expressed on HEK293T-huDLL3 cells in absence and presence of human serum albumin. Controls included Rova antibody as a positive control and a non-binding DARPin comprising SEQ ID NO: 21 as a negative control. HEK293T-hDLL3 cells are HEK293T cells that were stably transfected to express human DLL3 on their surface.
In brief, 1×10^5 cells/well were resuspended in 100 μl DARPin dilution (500 nM, 1:5 serial diluted) and incubated for 1 h at 4° C. Cells were washed twice with PBS and resuspended in 100 μl anti-DARPin antibody (rabbit anti-DARPin 1.4.8) and LIVE/DEAD fixable cell stain (1:1000, Thermo Fisher #L34957). This step was performed in absence and presence of […] Human Serum Albumin (CSL Behring #150570). After incubation and washing, cells were incubated with detection antibody for 30 minutes (Goat anti-Human IgG (H+L), AF647, Thermo Fisher #21445). Cells were fixed (Paraformaldehyde Solution, LucernaChem) and acquired at Attune N×T (Thermo Life Technologies). Raw fcs files were exported and analyzed using FlowJo software. MFI values of live AF647-positive cells were exported from FlowJo and plotted using GraphPad Prism software. None of the tested ankyrin repeat proteins show binding to the HEK293T wildtype cells.

NCI-H82 tumor model = assay: Biodistribution of radio-labelled DARPin conjugates in NCI-H82 tumor model; details: for Blood % ID/g / Kidneys % ID/g / Tumors % ID/g: mouse, in vivo, iv, 0.01 mg/kg; for T:K ratio: R2G2 mice
Experimental: NCI-H82 tumor model. R2G2 mice were purchased from Envigo. All studies were conducted under the approval of the institutional IACUC committee. Animals were maintained under specific-pathogen-free (SPF) conditions with daily cycles of light and darkness (12 h/12 h), in line with ethical guidelines. No manipulations were performed during the first 5 days after arrival, to allow the animals to acclimatize to the new environment. All mice were monitored daily for assessment of physical condition and general well-being. NCI-H82 cells were purchased from ATCC (Catalog No. HTB-175). Solid xenografts were established by subcutaneous (SQ) injection of NCI-H82 cells in RPMI media mixed 1:1 with Corning® Matrigel® basement membrane matrix (GFR; Corning, Cat No 354230.). Cells were quantified using Countess cell counter. Each mouse was injected SQ with 5×10^6 NCI-H82 cells in 100 μL RPMI/GFR-Matrigel into the right flank of each mouse. Tumor volumes were estimated three times per week through calipering, according to the formula: volume=0.5×length×width^2 and grown until they reached 200-300 mm^3. Tumor-associated antigen level expressed in tumors, tumor vascularization profile and DLL3 soluble form in mouse serum was tested.
Biodistribution study. […] Radio-labeled (Pb-212) DARPin conjugates were then injected at 0.01 mg/kg (10 μCi DARPin conjugates) into the tail vein of R2G2 mice (females) xenografted subcutaneously (at age of about 7 weeks) with NCI-H82 cells (5 million cells, growth factor reduced Matrigel) and bearing tumors (5-10 mm in diameter). […] Biodistribution was monitored at 4 h and 24h post-injection. Mice were euthanized by CO2 inhalation and cervical dislocation. Blood, spleen, kidneys, liver and tumor were extracted, weighed and the radioactivity was determined with a γ-counter counter (such as Wizard^22470, Perkin Elmer). The data were expressed as the % injected dose/gram (% ID/g).
Radio-labeled (Pb-212) DARPin conjugates were then injected at 0.01 mg/kg (10 μCi DARPin conjugates) into the tail vein of R2G2 mice (females) xenografted subcutaneously (at age of about 7 weeks) with NCI-H82 cells (5 million cells, growth factor reduced Matrigel) and bearing tumors (5-10 mm in diameter). Biodistribution was monitored at 4 h and 24h post-injection. Mice were euthanized by CO2 inhalation and cervical dislocation. Kidneys and tumor were extracted, weighed and the radioactivity was determined with a γ-counter counter (such as Wizard^22470, Perkin Elmer). The data were expressed as the % injected dose/gram (% ID/g) and the tumor to kidney (T:K) ratio was determined.
Radio-labelled (Pb-212) DARPin conjugates were then injected at 0.01 mg/kg (10 μCi DARPin conjugates) (i) into the tail vein of R2G2 mice (females) xenografted subcutaneously (at age of about 7 weeks) with NCI-H82 cells (5 million cells, growth factor reduced Matrigel) and bearing tumors (5-10 mm in diameter), and (ii) into the tail vein of athymic nude mice (females) xenografted subcutaneously (at age of about 7 weeks) with hDLL3-MC38 cells (5 million cells, growth factor reduced Matrigel) and bearing tumors (5-10 mm in diameter). Biodistribution was monitored at 4 h and 24h post-injection. Mice were euthanized by CO2 inhalation and cervical dislocation. Blood, bladder, small intestine, colon, spleen, kidneys, liver, lung, heart, tail and tumor were extracted, weighed and the radioactivity was determined with a γ-counter (such as Wizard^22470, Perkin Elmer). The data were expressed as the % injected dose/gram (% ID/g).

Row | Molecule | EC50 [1] [nM] | Blood % ID/g (NCI-H82 tumor model; 4 h) [% ID/g] | Kidneys % ID/g (NCI-H82 tumor model; 4 h) [% ID/g] | Tumors % ID/g (NCI-H82 tumor model; 4 h) [% ID/g] | Blood % ID/g (NCI-H82 tumor model; 24 h) [% ID/g] | Kidneys % ID/g (NCI-H82 tumor model; 24 h) [% ID/g] | Tumors % ID/g (NCI-H82 tumor model; 24 h) [% ID/g] | T:K ratio (NCI-H82 tumor model; Pb-212 DOTAM conjugate 0.01 mg/kg (10 μCi) i.v., s.c. NCI-H82, 24 h, Example 9) | T:K ratio (NCI-H82 tumor model; Pb-212 conjugate, NCI-H82 cells xenografted intravenously instead of subcutaneously, 24 h (data not shown))
1 | MAM160: Two domain (2D) ankyrin repeat protein: serum albumin-specific domain (SEQ ID NO: 7), PT linker, DLL3-specific domain MAM120 (protein, Ankyrin repeat protein (MAM160)) DLGKKLLEAARAGQDDEVRELLKAGADVNAKDYFSHTPLHLAARNGHLKIVEVLLKAGADVNAKDFAGKTPLHLAADAGHLEIVEVLLKAGADVNAQDIFGKTPADIAADAGHEDIAEVLQKAAGSPTPTPTTPTPTPTTPTPTPTGSDLGTKLLSAAADGQDDEVRELLQAGADVNAKDLFGYTPLHLAAWRGHLEIVEVLLEAGADVNAKDAAGLTPLHLAAWFGHLEIVEVLLEAGADVNAQDVQGVTPADLAAKEGHEDIAEVLQQAA | 18.9 | 13.8 | 12.4 | 7.1 | 3.2 | 18.7 | 13.3 |  | 
2 | MAM282: Two domain (2D) ankyrin repeat protein: serum albumin-specific domain (SEQ ID NO: 7), PT linker, DLL3-specific domain (SEQ ID NO: 2) (protein, Ankyrin repeat protein (MAM282)) DLGKKLLEAARAGQDDEVRELLKAGADVNAKDYFSHTPLHLAARNGHLKIVEVLLKAGADVNAKDFAGKTPLHLAADAGHLEIVEVLLKAGADVNAQDIFGKTPADIAADAGHEDIAEVLQKAAGSPTPTPTTPTPTPTTPTPTPTGSDLGKKLLAAAREGQDDEVRELLKAGADVNAKDIWGQTPLHIAAWFGHLEIVEVLLKAGADVNAKDQTGHTPLHLAAKFGHLEIVEVLLKAGADVNAQDLLGRTPADLAAEEGHEDIAEVLQKAA | 21.2 |  |  |  |  |  |  |  | 
3 | MAM279 conjugate: SEQ ID NO: 15 conjugated to DOTAM-maleimide, labelled with Pb-212 (natural lead in PK studies) (conjugate, DOTAM-maleimide, Pb-212 label; Ankyrin repeat protein with tag (GS-MAM279-tag)) GSDLGKKLLEAARAGQDDEVRELLKAGADVNAKDYFSHTPLHLAARNGHLKIVEVLLKAGADVNAKDFAGKTPLHLAADAGHLEIVEVLLKAGADVNAQDIFGKTPADIAADAGHEDIAEVLQKAAGSPTPTPTTPTPTPTTPTPTPTGSDLGKKLLAAAAQGQDDEVRELLKAGANVNAKDLFGYTPLHLAAWRGHLEIVEVLLKAGADVNAKDAAGETPLHLAAWFGHLEIVEVLLKAGADVNAQDLQGKTPADLAAKEGHEDIAEVLQKAAGSGSC |  |  |  |  |  |  |  | above 1 | above 1
4 | MAM279: Two domain (2D) ankyrin repeat protein: serum albumin-specific domain (SEQ ID NO: 7), PT linker, DLL3-specific domain of MAM093 (protein, Ankyrin repeat protein (MAM279)) DLGKKLLEAARAGQDDEVRELLKAGADVNAKDYFSHTPLHLAARNGHLKIVEVLLKAGADVNAKDFAGKTPLHLAADAGHLEIVEVLLKAGADVNAQDIFGKTPADIAADAGHEDIAEVLQKAAGSPTPTPTTPTPTPTTPTPTPTGSDLGKKLLAAAAQGQDDEVRELLKAGANVNAKDLFGYTPLHLAAWRGHLEIVEVLLKAGADVNAKDAAGETPLHLAAWFGHLEIVEVLLKAGADVNAQDLQGKTPADLAAKEGHEDIAEVLQKAA | 14.9 | 23 | 11 | 8 | 13 | 25 | 29 |  | 
5 | MAM283: Two domain (2D) ankyrin repeat protein: serum albumin-specific domain (SEQ ID NO: 7), PT linker, DLL3-specific domain (SEQ ID NO: 3) (protein, Ankyrin repeat protein (MAM283)) DLGKKLLEAARAGQDDEVRELLKAGADVNAKDYFSHTPLHLAARNGHLKIVEVLLKAGADVNAKDFAGKTPLHLAADAGHLEIVEVLLKAGADVNAQDIFGKTPADIAADAGHEDIAEVLQKAAGSPTPTPTTPTPTPTTPTPTPTGSDLGKKLLAAAADGQDDEVRELLQAGADVNAKDLFGYTPLHLAAWRGHLEIVEVLLEAGADVNAKDAAGETPLHLAAWFGHLEIVEVLLEAGADVNAQDVQGKTPADLAAKEGHEDIAEVLQQAA | 22.1 |  |  |  |  |  |  |  | 
6 | Rova: Rova antibody, DLL3-binding benchmark antibody used as positive control and comparison (antibody, chains of the INN, looked up, V domains shown) VH: QVQLVQSGAEVKKPGASVKVSCKASGYTFTNYGMNWVRQAPGQGLEWMGWINTYTGEPTYADDFKGRVTMTTDTSTSTAYMELRSLRSDDTAVYYCARIGDSSPSDYWGQGTLVTVSS VL: EIVMTQSPATLSVSPGERATLSCKASQSVSNDVVWYQQKPGQAPRLLIYYASNRYTGIPARFSGSGSGTEFTLTISSLQSEDFAVYYCQQDYTSPWTFGQGTKLEIK | 0.1 |  |  |  |  |  |  |  | 
